# Results as given in article PMC5898196 (Science (New York, N.Y.), 2017).
# B1: Recombinant full-length human TRPM4 (hTRPM4b) (natural protein)
# chain: not shown
# modifications: glycan at Asn992
# Molecular target: the molecule itself
# Assay: cryo-EM structure
protein,measurement,value
B1,stoichiometry N,4
